Assay results published in patent US20240110201A1 (SPARK THERAPEUTICS, published 2024).

Molecular target: T1, C1-esterase (reagent of the Technochrom C1-INH kit, Diapharma 5345003) (human, UniProt P09871 16-688, limits assumed)
T1 sequence (looked up): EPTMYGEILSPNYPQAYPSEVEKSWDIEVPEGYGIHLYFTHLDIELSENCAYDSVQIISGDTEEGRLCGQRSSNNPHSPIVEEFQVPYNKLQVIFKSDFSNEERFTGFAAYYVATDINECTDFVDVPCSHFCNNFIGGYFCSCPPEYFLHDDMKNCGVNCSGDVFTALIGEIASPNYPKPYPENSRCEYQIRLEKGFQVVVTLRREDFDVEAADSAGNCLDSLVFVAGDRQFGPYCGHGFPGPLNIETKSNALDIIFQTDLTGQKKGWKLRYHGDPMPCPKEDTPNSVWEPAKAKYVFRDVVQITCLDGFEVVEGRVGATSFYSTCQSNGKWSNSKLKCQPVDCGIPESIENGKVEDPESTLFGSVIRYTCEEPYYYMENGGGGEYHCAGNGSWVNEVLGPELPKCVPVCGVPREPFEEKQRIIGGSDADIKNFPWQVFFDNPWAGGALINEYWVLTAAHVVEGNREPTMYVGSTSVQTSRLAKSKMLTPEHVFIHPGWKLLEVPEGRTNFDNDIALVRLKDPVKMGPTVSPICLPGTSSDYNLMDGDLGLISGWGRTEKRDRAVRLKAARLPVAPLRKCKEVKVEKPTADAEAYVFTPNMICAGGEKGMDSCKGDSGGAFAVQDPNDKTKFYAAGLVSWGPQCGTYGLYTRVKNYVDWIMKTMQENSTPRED
Experiment: cell-based or functional assay

B1: human C1 inhibitor (transgene product secreted into plasma after administration of AAV-encapsidated SERPING1 expression cassettes) (other)
chain: NPNATSSSSQDPESLQDRGEGKVATTVISKMLFVEPILEVSSLPTTNSTTNSATKITANTTDEPTTQPTTEPTTQPTIQPTQPTTQLPTDSPTQPTTGSFCPGPVTLCSDLESHSTEAVLGDALVDFSLKLYHAFSAMKKVETNMAFSPFSIASLLTQVLLGAGENTKTNLESILSYPKDFTCVHQALKGFTTKGVTSVSQIFHSPDLAIRDTFVNASRTLYSSSPRVLSNNSDANLELINTWVAKNTNNKISRLLDSLPSDTRLVLLNAIYLSAKWKTTFDPKKTRMEPFHFKNSVIKVPMMNSKKYPVAHFIDQTLKAKVGQLQLSHNLSLVILVPQNLKHRLEDMEQALSPSVFKAIMEKLEMSKFQPTLLTLPRIKVTTSQDMLSIMEKLEFFDFSYDLNLCGLTEDPDLQVSAMQHQTVLELTETGVEAAAASAISVARTLLVFEVQQPFLFVLWDQQHKFPVFMGRVYDPRA
Question: Which “C1-INH activity, chromogenic assay of residual C1-esterase activity, reported as percentage of activity relative to a coagulation reference standard” value does the source give for B1 here?
Answer: The value was 766 % activity.
